Data: patent US7732183B2, “Method for refolding enzymes” (Elan Pharmaceuticals, Inc., priority 2001, dated 2010)
Where “and” joins values, the source holds several entries; their conditions need not be identical. Equal entries are not always repeated.

B1: pQE70-BACE: (M)R36 to S432 BACE-RS(His)6 lacking prosequence, SEQ ID NO:3, expressed in E. coli and refolded (protein, listed as Homo sapiens)
chain: MRGSFVEMVDNLRGKSGQGYYVEMTVGSPPQTLNILVDTGSSNFAVGAAPHPFLHRYYQRQLSSTYRDLRKGVYVPYTQGKWEGELGTDLVSIPHGPNVTVRANIAAITESDKFFINGSNWEGILGLAYAEIARPDDSLEPFFDSLVKQTHVPNLFSLQLCGAGFPLNQSEVLASVGGSMIIGGIDHSLYTGSLWYTPIRREWYYEVIIVRVEINGQDLKMDCKEYNYDKSIVDSGTTNLRLPKKVFEAAVKSIKAASSTEKFPDGFWLGEQLVCWQAGTTPWNIFPVISLYLMGEVTNQSFRITILPQQYLRPVEDVATSQDDCYKFAISQSSTGTVMGAVIMEGFYVVFDRARKRIGFAVSACHVHDEFRTAAVEGPFVTLDMEDCGYNIPQTDESRSHHHHHH
modifications: His6 tag
B2: pET11a-BACE + HIV Pr: V40 to S432 BACE fragment, SEQ ID NO:31, obtained by HIV-1 protease treatment of pET11a-BACE (protein, listed as Homo sapiens)
chain: VEMVDNLRGKSGQGYYVEMTVGSPPQTLNILVDTGSSNFAVGAAPHPFLHRYYQRQLSSTYRDLRKGVYVPYTQGKWEGELGTDLVSIPHGPNVTVRANIAAITESDKFFINGSNWEGILGLAYAEIARPDDSLEPFFDSLVKQTHVPNLFSLQLCGAGFPLNQSEVLASVGGSMIIGGIDHSLYTGSLWYTPIRREWYYEVIIVRVEINGQDLKMDCKEYNYDKSIVDSGTTNLRLPKKVFEAAVKSIKAASSTEKFPDGFWLGEQLVCWQAGTTPWNIFPVISLYLMGEVTNQSFRITILPQQYLRPVEDVATSQDDCYKFAISQSSTGTVMGAVIMEGFYVVFDRARKRIGFAVSACHVHDEFRTAAVEGPFVTLDMEDCGYNIPQTDES
modifications: BACE V40- S432 fragment
B3: pQE80L-BACE + HIV Pr: V40 to S432 BACE fragment, SEQ ID NO:31, obtained by HIV-1 protease treatment of pQE80L-BACE (protein, listed as Homo sapiens)
chain: B2 chain
modifications: BACE V40- S432 fragment
B4: PcDNA3.1Asp2LΔTM(His)6 + HIV Pr: CHO-expressed BACE cleaved with HIV-1 protease, SEQ ID NO:32 (protein, listed as Homo sapiens)
chain: VEMVDNLRGKSGQGYYVEMTVGSPPQTLNILVDTGSSNFAVGAAPHPFLHRYYQRQLSSTYRDLRKGVYVPYTQGKWEGELGTDLVSIPHGPNVTVRANIAAITESDKFFINGSNWEGILGLAYAEIARPDDSLEPFFDSLVKQTHVPNLFSLQLCGAGFPLNQSEVLASVGGSMIIGGIDHSLYTGSLWYTPIRREWYYEVIIVRVEINGQDLKMDCKEYNYDKSIVDSGTTNLRLPKKVFEAAVKSIKAASSTEKFPDGFWLGEQLVCWQAGTTPWNIFPVISLYLMGEVTNQSFRITILPQQYLRPVEDVATSQDDCYKFAISQSSTGTVMGAVIMEGFYVVFDRARKRIGFAVSACHVHDEFRTAAVEGPFVTLDMEDCGYNIPQTDESHHHHHH
modifications: His6 tag; HIV Protease treated BACE Asp2-2L-TM-His6
B5: pET11a-BACE: T7 tag-GSM-BACE (A-8 to S432), SEQ ID NO:5, expressed in E. coli and refolded (protein, listed as Homo sapiens)
chain: MASMTGGQQMGRGSMAGVLPAHGTQHGIRLPLRSGLGGAPLGLRLPRETDEEPEEPGRRGSFVEMVDNLRGKSGQGYYVEMTVGSPPQTLNILVDTGSSNFAVGAAPHPFLHRYYQRQLSSTYRDLRKGVYVPYTQGKWEGELGTDLVSIPHGPNVTVRANIAAITESDKFFINGSNWEGILGLAYAEIARPDDSLEPFFDSLVKQTHVPNLFSLQLCGAGFPLNQSEVLASVGGSMIIGGIDHSLYTGSLWYTPIRREWYYEVIIVRVEINGQDLKMDCKEYNYDKSIVDSGTTNLRLPKKVFEAAVKSIKAASSTEKFPDGFWLGEQLVCWQAGTTPWNIFPVISLYLMGEVTNQSFRITILPQQYLRPVEDVATSQDDCYKFAISQSSTGTVMGAVIMEGFYVVFDRARKRIGFAVSACHVHDEFRTAAVEGPFVTLDMEDCGYNIPQTDES
modifications: T7 tag
B6: PcDNA3.1Asp2LΔTM(His)6: Recombinant human BACE lacking transmembrane domain, His6 tag, expressed in CHO cells (control), SEQ ID NO:23 (protein, listed as Homo sapiens)
chain: MAQALPWLLLWMGAGVLPAHGTQHGIRLPLRSGLGGAPLGLRLPRETDEEPEEPGRRGSFVEMVDNLRGKSGQGYYVEMTVGSPPQTLNILVDTGSSNFAVGAAPHPFLHRYYQRQLSSTYRDLRKGVYVPYTQGKWEGELGTDLVSIPHGPNVTVRANIAAITESDKFFINGSNWEGILGLAYAEIARPDDSLEPFFDSLVKQTHVPNLFSLQLCGAGFPLNQSEVLASVGGSMIIGGIDHSLYTGSLWYTPIRREWYYEVIIVRVEINGQDLKMDCKEYNYDKSIVDSGTTNLRLPKKVFEAAVKSIKAASSTEKFPDGFWLGEQLVCWQAGTTPWNIFPVISLYLMGEVTNQSFRITILPQQYLRPVEDVATSQDDCYKFAISQSSTGTVMGAVIMEGFYVVFDRARKRIGFAVSACHVHDEFRTAAVEGPFVTLDMEDCGYNIPQTDESHHHHHH
modifications: His6 tag; Human soluble BACE with 6-His tag

Key:
Assay type in all cases: biochemical
[1] = molecular target: T1, substrate SEISY↓EVEFRWKK [SEQ ID NO:9] or GLTNIKTEEISEISY↓EVEFRWKK [SEQ ID NO:10] (Homo sapiens, UniProt P56817); assay: BACE activity assay: HPLC with fluorescence detection of peptide substrate cleavage; settings: relative to CHO BACE, Example 5 optimized refolding method
T1 construct: made in house; control enzyme from CHO cells
Experimental: (§1) Peptide substrates SEISY↓EVEFRWKK [SEQ ID NO: 9] and GLTNIKTEEISEISY↓EVEFRWKK [SEQ ID NO: 10] were synthesized by solid-phase technology (arrows indicating cleavage site). The assay mixture contained in a volume of 200 μl, 0.1 M Sodium acetate, pH 5.0, 0.5-20 nM BACE and 25 μM substrate SEISY↓EVEFRWKK [SEQ ID NO:9] or GLTNIKTEEISEISY↓EVEFRWKK [SEQ ID NO:10]. The reaction mixture was incubated for 2 hours at 37° C.; reactions were stopped with 100 μl of 4% TFA in H2O. A 50 μl portion was injected into an Agilent 1100 Series HPLC equipped with an Alltech Rocket™ column (7 mm i.d.×53 mm length, C18, 3 μm) pre-equilibrated with 88% reagent A (0.1% TFA in water), 12% reagent B (0.1% TFA in acetonitrile). The flow rate over this column was 3 ml per minute. The products (including uncleaved substrate) were eluted from the column with the following linear gradients:
(§2) The Agilent 1100 Series HPLC is equipped with a fluorescence detector that allows detection of the substrate disappearance and EVEFRWKK [SEQ ID NO:29] product formation. Activity was expressed as Fluorescence peak area generated by the liberation of a fluorescent (Tryptophan fluorescence) product upon cleavage of substrate. Fluorescence detection is monitored at 348 nM upon excitation at 280 nm.

[2] = system: GLTNIKTEEISEISY-↓-EVEFRWKK [SEQ ID NO: 10]; assay: Kinetic comparison of CHO and E. coli BACE (Vmax, kcat, Km); settings: substrate SEQ ID NO: 10, 1 to 300 μM; pH 5.5, 50 mM NaCl, 37° C., 1 h, enzyme 1 nM
[3] = system: SEISY-↓-EVEFRWKK [SEQ ID NO: 9]; assay: as above; settings: substrate SEQ ID NO: 9, 1 to 300 μM; pH 5.5, 50 mM NaCl, 37° C., 1 h, enzyme 1 nM
[4] = system: substrate SEISY↓EVEFRWKK [SEQ ID NO:9] or GLTNIKTEEISEISY↓EVEFRWKK [SEQ ID NO:10]; assay: BACE activity assay: HPLC with fluorescence detection of peptide substrate cleavage; settings: for Activity %: relative to recombinant BACE expressed in CHO cells (=100), E. coli enzymes refolded as in Example 4 and purified
Experimental: as §1, §2

[5] = molecular target: T2, EIDL-↓-MVLDWHDR [SEQ ID NO: 13] (Homo sapiens, UniProt P56817); assay: Kinetic comparison of CHO and E. coli BACE (Vmax, kcat, Km); settings: substrate SEQ ID NO: 13, 1 to 300 μM; pH 5.5, 50 mM NaCl, 37° C., 1 h, enzyme 1 nM
T2 construct: made in house; host or cells: CHO cells, purified from conditioned media

Molecule	Km [2] [µM]	Vmax [2] [µmol/min/mg]	kcat [2] [s⁻¹]	Km [3] [µM]	Vmax [3] [µmol/min/mg]	kcat [3] [s⁻¹]	Activity % [4] [%]	further results
B1	5.4	0.400	0.317	55.5	0.345	0.273		Activity % ([1]; first elution from affinity column): 171%; Activity % ([1]; second elution from affinity column): 125%
B2							248	increase in enzyme activity after HIV-1 protease treatment versus untreated enzyme ([4]; HIV-1 protease cleavage at F39-V40, then purification): about 5 fold; Activity % ([4]; listed as V^40 . . . S^432): 248% and 222%
B3							222	
B4							120	more enzymatic activity than untreated BACE ([4]; BACE expressed in CHO cells, HIV-1 protease treated and purified): 10-20%
B5							47	Activity % ([4]; listed as pET11a BACE): about 47%; Activity % ([4]; listed as recombinant BACE): 28%
B6	4.9	0.435	0.345	52	0.294	0.233	100	Km [5]: 12 µM; Vmax [5]: 0.0196 µmol/min/mg; kcat [5]: 0.0155 s⁻¹
